Values joined by “and” are separate entries in the source; they are usually repeats but may differ in a detail not shown here. Identical values can stand only once.
Experiments:
[1] = biological target: YycI-C-His6 (Staphylococcus aureus SA137/93A); test: native gel or EMSA; blue native PAGE (BN-PAGE) of single proteins; 4-20% Tris-HCl gradient gel; 5 µg of YycF, YycH, YycI or 10 µg of YycG, YycG(Y306N) in 10 µl dialysis buffer I (50 mM NaH2PO4, 300 mM NaCl, 50% glycerol, pH 8) with Coomassie Brilliant Blue R250; 80 V, 4-7°C; masses calibrated with soluble markers and a conversion factor
[2] = biological target: the molecule itself; test: as above

YycI-C-His6 (natural protein)
stoichiometry N [1]: < 6

B1: YycG-C-His6 (enzyme, Staphylococcus aureus SA137/93A)
chain: MGMKWLKQLQSLHTKLVIVYVLLIIIGMQIIGLYFTNNLEKELLDNFKKNITQYAKQLEISIEKVYDEKGSVNAQKDIQNLLSEYANRQEIGEIRFIDKDQIIIATTKQSNRSLINQKANDSSVQKALSLGQSNDHLILKDYGGGKDRVWVYNIPVKVDKKVIGNIYIESKINDVYNQLNNINQIFIVGTAISLLITVILGFFIARTITKPITDMRNQTVEMSRGNYTQRVKIYGNDEIGELALAFNNLSKRVQEAQANTESEKRRLDSVITHMSDGIIATDRRGRIRIVNDMALKMLGMAKEDIIGYYMLSVLSLEDEFKLEEIQENNDSFLLDLNEEEGLIARVNFSTIVQETGFVTGYIAVLHDVTEQQQVERERREFVANVSHELRTPLTSMNSYIEALEEGAWKDEELAPQFLSVTREETERMIRLVNDLLQLSKMDNESDQINKEIIDFNMFINKIINRHEMSAKDTTFIRDIPKKTIFTEFDPDKMTQVFDNVITNAMKYSRGDKRVEFHVKQNPLYNRMTIRIKDNGIGIPINKVDKIFDRFYRVDKARTRKMGGTGLGLAISKEIVEAHNGRIWANSVEGQGTSIFITLPCEVIEDGDWDE
notes: two additional residues (Met-Gly) at the N-terminus, from the NcoI site placed in frame; Cloned NcoI/XhoI into pET22bΔpelB; also called WalK; VicK; source: E. coli C41(DE3) or C43(DE3) pREP4groESL(MT), purified from the membrane fraction (DDM, Ni-NTA); not shown: His6, C-terminal, kept
stoichiometry N [2]: 2 and 3 and 4

B2: YycG(Y306N)-C-His6 (enzyme)
chain: MGMKWLKQLQSLHTKLVIVYVLLIIIGMQIIGLYFTNNLEKELLDNFKKNITQYAKQLEISIEKVYDEKGSVNAQKDIQNLLSEYANRQEIGEIRFIDKDQIIIATTKQSNRSLINQKANDSSVQKALSLGQSNDHLILKDYGGGKDRVWVYNIPVKVDKKVIGNIYIESKINDVYNQLNNINQIFIVGTAISLLITVILGFFIARTITKPITDMRNQTVEMSRGNYTQRVKIYGNDEIGELALAFNNLSKRVQEAQANTESEKRRLDSVITHMSDGIIATDRRGRIRIVNDMALKMLGMAKEDIIGNYMLSVLSLEDEFKLEEIQENNDSFLLDLNEEEGLIARVNFSTIVQETGFVTGYIAVLHDVTEQQQVERERREFVANVSHELRTPLTSMNSYIEALEEGAWKDEELAPQFLSVTREETERMIRLVNDLLQLSKMDNESDQINKEIIDFNMFINKIINRHEMSAKDTTFIRDIPKKTIFTEFDPDKMTQVFDNVITNAMKYSRGDKRVEFHVKQNPLYNRMTIRIKDNGIGIPINKVDKIFDRFYRVDKARTRKMGGTGLGLAISKEIVEAHNGRIWANSVEGQGTSIFITLPCEVIEDGDWDE
notes: two additional residues (Met-Gly) at the N-terminus, from the NcoI site placed in frame; YycG (WalK/VicK) sensor histidine kinase of Staphylococcus aureus with the exchange Y306N (nucleotide exchange T916A) in the cytoplasmic PAS domain; Cloned NcoI/XhoI into pET22bΔpelB; also called mutant kinase; mutated YycG kinase; source: E. coli C41(DE3) or C43(DE3) pREP4groESL(MT), purified from the …
stoichiometry N [2]: 2 and 3 and 4

Reference: paper PMC3262814, “Purification and Activity Testing of the Full-Length YycFGHI Proteins of Staphylococcus aureus” (PLoS ONE, 2012)
